Patent US20120034160A1 (AbbVie / Abbott, published 2012)

T1: Recombinant Human IL-17 (human, UniProt Q16552 20-155, limits assumed)
T1 sequence (looked up): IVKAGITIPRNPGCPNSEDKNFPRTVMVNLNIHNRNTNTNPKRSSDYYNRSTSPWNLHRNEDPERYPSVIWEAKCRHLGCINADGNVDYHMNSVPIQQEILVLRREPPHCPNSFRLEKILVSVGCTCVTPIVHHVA


Assays:
Recombinant Human IL-17 = target: T1, Recombinant Human IL-17; experiment: cell-based or functional assay
Recombinant Human IL-1β [1] = target: T2, Recombinant Human IL-1β (human, UniProt P01584 117-269); experiment: Biacore SPR; N-terminal VD
T2 construct: bought reagent; also called IL-1B
Summary of the method: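 First, goat anti-mouse IgG was immobilized on a CM5 chip by amine coupling. Next, test antibody or DVD-Ig (25 μg/ml) was captured. Then antigen at 10−200 nM flowed over at 25 μl/min, 25° C. Finally, association and dissociation phases were globally fitted to a 1:1 model.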

Recombinant Human IL-1β [2] = target: Recombinant Human IL-1β (human, UniProt P01584 117-269); experiment: cell-based or functional assay

| IL-17 Neutralization Assay EC50 (Recombinant Human IL-17) [nM] | Kd (Recombinant Human IL-1β [1]) [nM] | koff (Recombinant Human IL-1β [1]) [s⁻¹] | kon (Recombinant Human IL-1β [1]) [M⁻¹ s⁻¹] | N-terminal VD IL-17 Neutralization Assay EC50 (Recombinant Human IL-17) [pM] | C-Terminal VD IL-1β Neutralization Assay EC50 (Recombinant Human IL-1β [2]) [nM] | Binder |
| --- | --- | --- | --- | --- | --- | --- |
| 0.0161 |  |  |  |  |  | AB273 (antibody, human IgG1, kappa, V domains shown) VH: EVQLVQSGAEVKKPGSSVKVSCKASGYTFTDYEIHWVRQAPGQGLEWMGVNDPESGGTFYNQKFDGRVTLTADESTSTAYMELSSLRSEDTAVYYCTRYSKWDSFDGMDYWGQGTTVTVSS VL: DIQMTQSPSSLSASVGDRVTITCRASSGIISYIDWFQQKPGKAPKRLIYATFDLASGVPSRFSGSGSGTDYTLTISSLQPEDFATYYCRQVGSYPETFGQGTKLEIKR |
|  | 0.077 | 0.00046 | 6e+06 |  |  | DVD1266 (bispecific antibody, human IgG1, kappa, DVD-Ig, outer AB270, inner AB273, linker set 1; V1 wt hIgG1, V2 kappa; also called DVD1266H; DVD1266L) heavy: not shown light: DTQVTQSPSSLSASVGDRVTITCITSTDIDVDMNWYQQKPGKPPKLLISQGNTLRPGVPSRFSSSGSGTDFTFTISSLQPEDFATYYCLQSDNLPLTFGQGTKLEIKRTVAAPDIQMTQSPSSLSASVGDRVTITCRASSGIISYIDWFQQKPGKAPKRLIYATFDLASGVPSRFSGSGSGTDYTLTISSLQPEDFATYYCRQVGSYPETFGQGTKLEIKRTVAAPSVFIFPPSDEQLKSGTASVVCLLNNFYPREAKVQWKVDNALQSGNSQESVTEQDSKDSTYSLSSTLTLSKADYEKHKVYACEVTHQGLSSPVTKSFNRGEC |
|  | 0.1 | 0.00054 | 5.3e+06 |  |  | DVD1270 (bispecific antibody, human IgG1, kappa, DVD-Ig, outer AB272, inner AB273, linker set 1; V1 wt hIgG1, V2 kappa; also called DVD1270H; DVD1270L) heavy: not shown light: ETTVTQSPSSLSASVGDRVTITCITSTDIDVDMNWYQQKPGKPPKLLISQGNTLRPGVPSRFSSSGSGTDFTFTISSLQPEDFATYYCLQSDNLPLTFGQGTKLEIKRTVAAPDIQMTQSPSSLSASVGDRVTITCRASSGIISYIDWFQQKPGKAPKRLIYATFDLASGVPSRFSGSGSGTDYTLTISSLQPEDFATYYCRQVGSYPETFGQGTKLEIKRTVAAPSVFIFPPSDEQLKSGTASVVCLLNNFYPREAKVQWKVDNALQSGNSQESVTEQDSKDSTYSLSSTLTLSKADYEKHKVYACEVTHQGLSSPVTKSFNRGEC |
|  |  |  |  | 5.2 | 20 | DVD1263 (bispecific antibody, human IgG1, kappa) heavy: not shown light: DIQMTQSPSSLSASVGDRVTITCRASSGIISYIDWFQQKPGKAPKRLIYATFDLASGVPSRFSGSGSGTDYTLTISSLQPEDFATYYCRQVGSYPETFGQGTKLEIKRTVAAPDIQMTQSPSSLSASVGDRVTITCRASGNIHNYLTWYQQTPGKAPKLLIYNAKTLADGVPSRFSGSGSGTDYTFTISSLQPEDIATYYCQHFWSIPYTFGQGTKLQITRTVAAPSVFIFPPSDEQLKSGTASVVCLLNNFYPREAKVQWKVDNALQSGNSQESVTEQDSKDSTYSLSSTLTLSKADYEKHKVYACEVTHQGLSSPVTKSFNRGEC |
|  | 0.03 | 4.5e-05 | 1.5e+06 |  |  | DVD1272 (bispecific antibody, human IgG1, kappa, V1 wt hIgG1, V2 kappa; also called DVD1272H; DVD1272L) heavy: not shown light: DIQMTQSPSSLSASVGDRVTITCRASGNIHNYLTWYQQTPGKAPKLLIYNAKTLADGVPSRFSGSGSGTDYTFTISSLQPEDIATYYCQHFWSIPYTFGQGTKLQITRTVAAPEIVLTQSPDFQSVTPKEKVTITCRASQDIGSELHWYQQKPDQPPKLLIKYASHSTSGVPSRFSGSGSGTDFTLTINGLEAEDAGTYYCHQTDSLPYTFGPGTKVDIKRTVAAPSVFIFPPSDEQLKSGTASVVCLLNNFYPREAKVQWKVDNALQSGNSQESVTEQDSKDSTYSLSSTLTLSKADYEKHKVYACEVTHQGLSSPVTKSFNRGEC |
|  | 0.043 | 7.2e-05 | 1.7e+06 |  |  | DVD1282 (bispecific antibody, human IgG1, kappa, V1 wt hIgG1, V2 kappa; also called DVD1282H; DVD1282L) heavy: not shown light: DIQMTQSPSSLSASVGDRVTITCRASGNIHNYLTWYQQTPGKAPKLLIYNAKTLADGVPSRFSGSGSGTDYTFTISSLQPEDIATYYCQHFWSIPYTFGQGTKLQITRTVAAPEIVLTQSPDFQSVTPKEKVTITCRASQNIGSELHWYQQKPDQSPKLLIKYASHSISGVPSRFSGSGSGTDFTLTINGLEAEDAATYYCHQSDTLPHTFGQGTKVDIKRTVAAPSVFIFPPSDEQLKSGTASVVCLLNNFYPREAKVQWKVDNALQSGNSQESVTEQDSKDSTYSLSSTLTLSKADYEKHKVYACEVTHQGLSSPVTKSFNRGEC |
|  | 0.031 | 4e-05 | 1.3e+06 |  |  | DVD1274 (bispecific antibody, human IgG1, kappa, V1 wt hIgG1, V2 kappa; also called DVD1274H; DVD1274L) heavy: not shown light: DIQMTQSPSSLSASVGDRVTITCRASGNIHNYLTWYQQTPGKAPKLLIYNAKTLADGVPSRFSGSGSGTDYTFTISSLQPEDIATYYCQHFWSIPYTFGQGTKLQITRTVAAPEIVLTQSPDFQSVTPKEKVTITCRASQDIGSELHWYQQKPDQPPKLLIKYASHSTSGVPSRFSGSGSGTDFTLTINGLEAEDAGTYYCHQTDSLPYTFGPGTKVDIKRTVAAPSVFIFPPSDEQLKSGTASVVCLLNNFYPREAKVQWKVDNALQSGNSQESVTEQDSKDSTYSLSSTLTLSKADYEKHKVYACEVTHQGLSSPVTKSFNRGEC |
|  | 0.017 | 1.9e-05 | 1.1e+06 |  |  | DVD1284 (bispecific antibody, human IgG1, kappa, V1 wt hIgG1, V2 kappa; also called DVD1284H; DVD1284L) heavy: not shown light: DIQMTQSPSSLSASVGDRVTITCRASGNIHNYLTWYQQTPGKAPKLLIYNAKTLADGVPSRFSGSGSGTDYTFTISSLQPEDIATYYCQHFWSIPYTFGQGTKLQITRTVAAPEIVLTQSPDFQSVTPKEKVTITCRASQNIGSELHWYQQKPDQSPKLLIKYASHSISGVPSRFSGSGSGTDFTLTINGLEAEDAATYYCHQSDTLPHTFGQGTKVDIKRTVAAPSVFIFPPSDEQLKSGTASVVCLLNNFYPREAKVQWKVDNALQSGNSQESVTEQDSKDSTYSLSSTLTLSKADYEKHKVYACEVTHQGLSSPVTKSFNRGEC |
